For the experiment, the target named is human FcRn (human). Nature of the experiment: BIAcore SPR, soluble IgG over immobilized human FcRn, pH 6.0; reference purified cynomolgus monkey IgG. A general note: SPR reads the build-up and loss of mass on a sensor chip optically.
human FcRn (human), sequence (chain, as listed by the source limits assumed, chain 1 of 2): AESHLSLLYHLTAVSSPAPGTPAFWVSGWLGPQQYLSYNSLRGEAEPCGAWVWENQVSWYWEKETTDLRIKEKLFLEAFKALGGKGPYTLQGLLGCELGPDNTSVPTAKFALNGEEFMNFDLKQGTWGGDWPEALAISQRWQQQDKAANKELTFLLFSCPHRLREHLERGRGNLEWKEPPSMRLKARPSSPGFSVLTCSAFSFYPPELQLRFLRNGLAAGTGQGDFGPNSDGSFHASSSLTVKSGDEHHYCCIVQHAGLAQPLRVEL
human FcRn (human), sequence (P61769 21-119 limits assumed, chain 2 of 2): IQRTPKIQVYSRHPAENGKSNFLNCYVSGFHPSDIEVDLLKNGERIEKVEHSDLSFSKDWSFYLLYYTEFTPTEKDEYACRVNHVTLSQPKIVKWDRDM

For the substance “humanized anti-RSV monoclonal antibody MEDI-524 (from UniProt P01857 1-330)”, the ratio of the human over cynomolgus IgG concentrations at Req50% came to 0.9.

The values above are taken from patent publication US20080181887A1.
